Assay: soluble on expression in E. coli; label from the status in PepcDB or PDB records

Sequence | soluble on expression in E. coli
MSLKLVAIAGSIGEQSYNRMLLQYIAKHFENLVDIELLNIDDVPVFNEDEDLSDNIKIQKIYQKIYGADGVILATPEHNHTVTAAIKNVIEWLSFKLHPFDGKPVWIVGASYFNQGSSRAQLHLKQILEAPGVNAIVMPGNEFLLRNAKEAFDAEGQLKDAGTVQFLEMVIQKFIKFVKVIDMLDAPDPKSYQDEDLESKGKVNTTIEGVDMHDEHWVEKAAQKVHAVDGSTYVKLDRGILTVDQLNYFLKTMPVELTYADDNNQFIYYNKNQPADKMLAPRNPGQAGDPLADVHPGRAVDRVKQVIHALRTGETDLVSMPVPGNGPDRHVMHYYKAMRDENGRYRGVNEWVTDIMPIIKYYLASTGEGHHHHHH | soluble
MSLKNPRIVVVDDSPFSVSILTDMLQRNGFEVVGSASNLNEVKKAVTELNPNLVTMDMVLADTDGLECTKIIHQINPEIRVIAISSMMDDEILAKAKKNNISAYIQKPIDEEELVLAINRISSDDDLYSELKDRYFDIFKQAFSYAFNKFIKEVPNFVEKDEHTVEHVEKGISIVMGIIGKYCGRLILNISYETADKFVESVLNRPAKDLQEILNVVAEFANIVGGNACSMINRENKIFGMRIAPPTTIYGDSINISRNSLDTMNFFTVNVTAGEISVNIGFNKGAVEWMSNEGHHHHHH | soluble
MSLKPSTRSNVQPFRVMQMLDRVHRRRREGKDTLMFCAGQPSTGAPEAVIEEAEIALRSGPLGYTEVIGDREFRERIADWHSATYDVDTNPDNVIVTTGSSGGFVASFIATLDHGDYVAMPTPGYPAYRNILESLGAKVLNLRCTAETRFQPTAQMLEELPHKPKAVIVTSPGNPTGTIIDPEELERIAKWCDDNDAVLISDEDYHGMSFGRPLATAHQFSKNAIVVGTLSKYFSMTGWRVGWIIVPDELVTPIENLQASLSLCAPAIGQAAGRAAFTLEAGAELDAHVEAYREAREVFVDKLPEIGLGTFADPDGGLYLWVDVSAYTDDSEEWALRLLDEAGVAVAPGVDFDPEEGHKWIRLSLCASKEDTIEGVRKIGEFIKKEGHHHHHH | soluble
MSLKPTVWHHLRLCPHGHPDETIDDAAIAVDETGTIVWLGAVSALPHGYAHWRREDLHGAWVTPGLVDCHTHLVYGGTRADEFAQRLAGVSYEEIARQGGGIVSTVRATRAADETTLFVQAAARLQPLLAEGVTAIEIKSGYGLDLASERKMLRVARQLGERFPVTVYTTFLGAHALPPEYAGRADAYIDEVCDRMLPALADEGLVDAVDVFCERIGFSLAQTERVFEAATRRGLPVKLHAEQLSNAGGTALAARYRALSADHLEFLDEAGIEAMKAAGTVAVLLPGAYYFIRETQLPPIELLRKHGVPIALATDHNPGTSPLESLLLTLNMGCTLFRMTVPEVLQGVTCHAAAALGRADRHGALEVGRQADFAAWSVGSLAELAYWIGRPLCEQVVRGGTTVFRRMNGEGHHHHHH | soluble
MSLKQILNHARIVLADRVIDNGALEINDGRIAAIHEHALPDGEDLAGALLLPGLVEIHTDNLEKHLMPRNGVLWPILPAVITHDAQCVAAGITTVLDALAVGDLEGESVRLDTLHSSFDAINQGMREGALRADHFFHLRCELAYPGLLDELEALIAHPAVKLVSVMDHTPGQRQYRDLEQYKKYYGKKKVGWNEDTFLAAVAERKTKQAQYAGRHKQAVVELAQARGIALASHDDTDEAHIEEALRDGVAISEFPTTREAAAAAKRHGLATVMGAPNVVRGGSHSGNVAALELARHDLLDILSSDYVPASLLHGAWLLHAQAGWSLPRAVAAVSLNPAHSVGLADRGDIAVGQRADLVAMIVHGDVPLVRQVWNSGRRVFEGHHHHHH | soluble
MSLKQYKAYLIDLDGTMYMGTDEIDGAKQFIDYLNVKGIPHLYVTNNSTKTPEQVTEKLREMHIDAKPEEVVTSALATADYISEQSPGASVYMLGGSGLNTALTEAGLVIKNDEHVDYVVIGLDEQVTYEKLAIATLGVRNGATFISTNPDVSIPKERGLLPGNGAITSVVSVSTGVSPQFIGKPEPIIMVKALEILGLDKSEVAMVGDLYDTDIMSGINVGMDTIHVQTGVSTLEDVQNKNVPPTYSFKDLNEAIAELEKEGHHHHHH | soluble
MSLKRAIIIGATSGIGKEVAQRLLSEGWQIGIAGRRQSALEEFRQIAPEQIKIQSLDVTQEYSAGKLDALIHQLGGMDLFLLSSGIGFQNMELNMEIELNTARTNVEGFTRMVDTAFSYFRNNGGGHLAVISSIAGTKGLGVAPAYSATKRFQNTYIDALEQLSHLQKLDIHFTDIRPGFVATDLLNDGKHYPMLMKTDQVGRDIVRALHRKEGHHHHHH | not soluble
MSLKRVVIIGMGFGGIRAARVLAGKGLDVVLVDRNNYHLFQPLLYQVGTAGLEQESIAYPVRAMAREWRGTRFHLAEVAGVDFPAREVVTGNGRIPYDYLIIGAGSVTNYFGLESVERHAFDLKELVDGERLRNHILTAFERAVVEPDPAKRRALMTFVIVGGGPTGVEFAGALMELVRYVLAKDYPELSVQAARVVLVEAFDRLLAAMPQELQVYTLEKLRAMGVEVLFNARVEGHHHHHH | not soluble
MSLKSGCSARQVCAGNTHFAVVTVEKELYTWVNMQGGTKLHGQLGHGDKASYRQPKHVEKLQGKAIHQVSCGDDFTVCVTDEGQLYAFGSDYYGCMGVDKVAGPEVLEPMQLNFFLSNPVEQVSCGDNHVVVLTRNKEVYSWGCGEYGRLGLDSEEDYYTPQKVDVPKALIIVAVQCGCDGTFLLTQSGKVLACGLNEFNKLGLNQCMSGIINHEAYHEVPYTTSFTLAKQLSFYKIRTIAPGKTHTAAIDERGRLLTFGCNKCGQLGVGNYKKRLGINLLGGPLGGKQVIRVSCGDEFTIAATDDNHIFAWGNGGNGRLAMTPTERPHGSDICTSWPRPIFGSLHHVPDLSCRGWHTILIVEKVLNSKTIRSNSSGLSIGTVFQSSSEGHHHHHH | not soluble
MSLKSVASGKELAGLRVMVIDDSKTIRRTAETLLKREGCEVVTAIDGFEALAKIADQKSQIIFVDIMMPRLDGYQTCALIKNNNLFKSTPVIMLSSKDGLFDKARGRVVGSEQYLTKPFTREELLSAIRTYVNPLKLAEGHHHHHH | not soluble
MSLKTGTTLEKLAQVKTVAFDKTGTITQGKLVVDQVVPQGSQSADRLLQLAASAEQHSSHVLAQSLVAANRLPLLTATNVTETTAQGVVATINGQQVRAGKAAFVTSESITKPDQTAVYVAVDDVYQGYVSFNDRVRPEAATTMTRLRQAGVAHLMMISGDRQPIAEQIAQEVGLDQVHAECLPAGKIAVLDQLAANQRPVAMVGDGINDAPSLATADVGIAMGAHGATAASESADAVVLKDDLTRVSTARVIAQDTMRVARQSEGHHHHHH | soluble
MSLKTIAIDFETANEERGSACSVGLAWIEDGQIVRVEERLIRPRDMRFSPFNIAVHGIRPRDVEDAPEFPEVMEEFIDDFHGATMIAHNAAFDFSVMRASFDKYRLSYPDLSYLCSVKIARHVWPHLVSHKLNVIAHHLQLRFVHHNAAEDAVVCAAASIAAARALGVAHIRDLPEKIGEGHHHHHH | not soluble
MSLKTIVVKFGTSTLTQGSPKLNSPHMMEIVRQIAQLHNDGFRIVIVTSGAIAAGRHYLNHPQLPPTIASKQLLAAVGQSQLIQAWEKLFAIYDIHIGQLLLTRADIEDRERFLNARDTLYALLDNHIIPVINENDAVATAEIKVGDNDNLSALVAILVQAEQLYLLTDQQGLFDSDPRKNPEAKLIPVVEQITDHIRSIAGGSGTNLGTGGMMTKIIAADVATRSGIETIIAPGNRPNVIADLAYEQNIGTKFIAHQSDRLESRKQWLFAAPSAGIITIDNGAQNAILEQNKSLLPAGIINVEGRFSRGEVVKIRTQSGKDIALGMPRYNSDALQLIKGRKSADIENVLGYEYGAVAMHRDDMIILSEGHHHHHH | soluble
MSLKTLIKNVHILTMDEQFSEIKAGYLVIEEDTIVELAPMTTLDEKRMAANQVIDGQNGILMPGMINTHTHVGMIPFRSLGDDVPDRLRRFLFPLEQFMTKELVGCSSDYAIAEMLLSGITSFCDMYYFEDEIAKSCEKMSVRALLGETIIDMPTCDSPEPSGGLFYAETFIRKWQGHPLITPMLAPHAPNTNSPEVLAKIIELSRQYQVPVTMHVAEMTYEMAEFEKAYQKTPIAFLEELGYLSEPFILAHCILATDEDLASLAATNGKARVAHCIGANTKSAKGVAPIKQMLDQGIIVGLGTDGPSSGNTLDLFTQMRMVANFHKTAHQDRSLFPAKEIVYLATMGGAKTLGLAEQVGSLEVDKKADITLIETQSVNMFPIFDAYSALVYSANASNVEAVWVNGQQLVANKELQQANLKEIKEKLYQAMNTFVKEAKKRAALEGHHHHHH | soluble
MSLKTVEDNRTSLTDQVLKGTLIQDKLYESNKYYPIYGSSELGKDDPFNPAIALNKHNANKKAFLLGAGGSTDLINAIELASQYDKLKGKKLTFIISPQWFTNHGLTNQNFDARMSQTQINQMFQQKNMSTELKRRYAQRLLQFPHVHNKEYLKSYAKNPKETKDSYISGFKENQLIKIEAIKSLFAMDKSPLEHVKPATKPDASWDEMKQKAVEIGKADTTSNKFGIRDQYWKLIQESKRKVRRDYEFNVNSPEFQDLELLVKTMRAAGADVQYVSIPSNGVWYDHIGIDKERRQAVYKKIHSTVVDNGGKIYDMTDKDYEKYVISDAVHIGWKGWVYMDEQIAKHMKGEPQPEVDKPKNEGHHHHHH | soluble
MSLKTVFKPTLLAVLVAASAPVLAHSLIADTKAPSPTTKAFAAEQRNTLPFADQEDFKLVEKGLIAQQKDLEIKDANGKVVWELGNYRFLLDGLDYDSIHPSLQRQAQLNMHHGLYKVTDRIYQVRGYDLANITFVKGDTGWIVFDPLTVPATAKAALDFVNQELGERPVKAVVYSHAHADHFGGVKGIVSQEQVDRGEVPIIAPKGFLNHAVAENVLAGNAMSRRTTYQYGNVLPKGATGQVDAAIGKNVAQGEVSLIAPTKVISEQTETVVIDGVTMEFQNTPGTESPAEMNTYFPQFKALWMAENTVGGLHNVYTLRGAEVRDAKAWSKYINESIHMYAKEADVMFASHTWPRWGNDNINHFLRKQRDMYGYIHDQALRLANHGVTINEIQDEFHVPDVLAHEWYNRGYHGSYHRNAKAVINKYLGYFDMNPATLRPLAPTDAAPKYVAAMGGMDNVIKLGKEAFDKGEFRWCAEIVDKAVFAEPSNKQARYLQADCLEQLGYQSESAGERNTYLMGAYELRNGVPKVSATKTAGADTVVAMDTELFLDYLGVRLNGDKAAGIDYTINFVLPDVNEKFLVELENAHLNNLKGIQSENPDMTLTLNRAQLNQVLMGKTTIQQLAKEGKAKIEGNAQALTDIAGMLDNFEFWFNIIEPKTKEGGSHHHHHH | soluble
MSLKVGECMTKFNWHESAEKKWDSSAEFWNQNSQEMWDSGSRSTIIPFFEQYVKKEAEVLDVGCGDGYGTYKLSRTGYKAVGVDISEVMIQKGKERGEGPDLSFIKGDLSSLPFENEQFEAIMAINSLEWTEEPLRALNEIKRVLKSDGYACIAILGPTAKPRENSYPRLYGKDVVCNTMMPWEFEQLVKEQGFKVVDGIGVYKRGVNEKMLGQLSTDLQQSLTFLWVFMLKRHKEMKEFLGGKEGHHHHHH | soluble
MSLKVIICGAGQVGYGIAEQLSREDNEVSVIDTAAPLITAITETLDVRGYVGHGAHPDMLAKAGADQADMIIAVTLHDEINIVACEVAHALFSVPTKIARIRDQSYMKPEYADLFSRENMSIDVTISPEVEVGKMVLRRIAFPGATDVVRFAEDTIYMLAIECMEDCPVINTPLQQLSSLFPDLIATVVGVYRDGILKVAHSSEQLRVGDLAYVICQRQHARRTLSLFGHEEQEGHHHHHH | not soluble
MSLKVLLLDVDGTLLSFETHKVSQSSIDALKKVHDSGIKIVIATGRAASDLHEIDAVPYDGVIALNGAECVLRDGSVIRKVAIPAQDFRKSMELAREFDFAVALELNEGVFVNRLTPTVEQIAGIVEHPVPPVVDIEEMFERKECCQLCFYFDEEAEQKVMPLLSGLSATRWHPLFADVNVAGTSKATGLSLFADYYRVKVSEIMACGDGGNDIPMLKAAGIGVAMGNASEKVQSVADFVTDTVDNSGLYKALKHFGVIEGHHHHHH | soluble
